This is an account of results in paper PMC4813464, “Recombinant Collagen Engineered to Bind to Discoidin Domain Receptor Functions as a Receptor Inhibitor*” (The Journal of Biological Chemistry, 2015).

Holding throughout (assay): ELISA; solid-phase binding assay: native (triple-helical) collagens coated at 200 μg/ml in PBS on Immulon 2HB plates overnight at 4 °C; DDR-Fc at 20 μg/ml (∼220 nM) or in a series of 0-60 μg/ml (0-667 nM) in PBS, 3 h at room temperature; anti-Fc detection, A450; apparent Kd from a one-site fit
Experiment [1] concerns the target SCl-DDR6 (bacterial collagen with six triplets of the human collagen III DDR-binding sequence) (Streptococcus pyogenes | human).
Experiment [2] has as its target SCl-DDR4 (bacterial collagen with four triplets of the human collagen III DDR-binding sequence) (Streptococcus pyogenes | human).
Experiment [3] has as its target T1, Collagen type III, pepsin-extracted from bovine skin (bovine, UniProt P04258 1-1049, 4-hydroxyproline in Yaa positions (positions not listed)).
T1 construct: bovine collagen alpha1(III) chain, pepsin-extracted from skin; Homotrimer of alpha1(III) chains; native triple helix unless denatured (90 °C, 30 min); also called Bovine Collage III; collagen III; source: pepsin-extracted from bovine skin (provided by Dr. John Ramshaw)
T1 sequence (looked up): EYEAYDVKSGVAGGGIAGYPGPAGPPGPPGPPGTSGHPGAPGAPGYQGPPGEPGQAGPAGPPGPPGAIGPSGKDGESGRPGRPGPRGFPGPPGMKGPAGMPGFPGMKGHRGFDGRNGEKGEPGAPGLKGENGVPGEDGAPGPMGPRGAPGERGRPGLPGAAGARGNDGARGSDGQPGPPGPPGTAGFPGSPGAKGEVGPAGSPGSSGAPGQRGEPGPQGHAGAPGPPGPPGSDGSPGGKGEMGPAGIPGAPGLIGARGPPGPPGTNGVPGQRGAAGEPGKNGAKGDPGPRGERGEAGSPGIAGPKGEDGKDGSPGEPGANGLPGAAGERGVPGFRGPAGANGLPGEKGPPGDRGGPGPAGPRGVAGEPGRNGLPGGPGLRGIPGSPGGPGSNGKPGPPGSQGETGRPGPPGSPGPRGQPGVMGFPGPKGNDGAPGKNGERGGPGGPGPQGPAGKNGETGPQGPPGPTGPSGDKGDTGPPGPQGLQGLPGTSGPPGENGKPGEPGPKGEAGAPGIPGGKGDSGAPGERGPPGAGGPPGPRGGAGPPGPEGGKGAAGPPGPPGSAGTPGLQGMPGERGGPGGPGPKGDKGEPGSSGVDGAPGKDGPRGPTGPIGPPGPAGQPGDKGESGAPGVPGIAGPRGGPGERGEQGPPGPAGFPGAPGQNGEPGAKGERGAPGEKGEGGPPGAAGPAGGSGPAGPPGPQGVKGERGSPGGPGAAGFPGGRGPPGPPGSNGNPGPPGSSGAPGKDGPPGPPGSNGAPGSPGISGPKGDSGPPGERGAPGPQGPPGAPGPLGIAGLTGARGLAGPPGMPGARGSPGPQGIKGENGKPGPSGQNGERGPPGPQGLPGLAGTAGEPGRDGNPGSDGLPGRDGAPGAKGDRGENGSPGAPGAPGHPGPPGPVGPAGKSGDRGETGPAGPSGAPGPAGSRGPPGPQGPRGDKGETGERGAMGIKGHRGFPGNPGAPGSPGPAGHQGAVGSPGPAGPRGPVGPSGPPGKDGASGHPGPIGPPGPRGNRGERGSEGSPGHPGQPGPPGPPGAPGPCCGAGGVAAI
Conditions: both partners purified.

For the molecule “DDR1-Fc (recombinant human discoidin domain receptor 1 ectodomain, Fc-tagged) (from UniProt Q08345 21-417) (Fc fusion)”, the Kd in experiment [1] was determined as 66 nM; in experiment [2], 53.3 nM.

B1: DDR2-Fc (recombinant human discoidin domain receptor 2 ectodomain, Fc-tagged) (Fc fusion, UniProt Q16832 22-399, looked up)
chain: KAQVNPAICRYPLGMSGGQIPDEDITASSQWSESTAAKYGRLDSEEGDGAWCPEIPVEPDDLKEFLQIDLHTLHFITLVGTQGRHAGGHGIEFAPMYKINYSRDGTRWISWRNRHGKQVLDGNSNPYDIFLKDLEPPIVARFVRFIPVTDHSMNVCMRVELYGCVWLDGLVSYNAPAGQQFVLPGGSIIYLNDSVYDGAVGYSMTEGLGQLTDGVSGLDDFTQTHEYHVWPGYDYVGWRNESATNGYIEIMFEFDRIRNFTTMKVHCNNMFAKGVKIFKEVQCYFRSEASEWEPNAISFPLVLDDVNPSARFVTVPLHHRMASAIKCQYHFADTWMMFSEITFQSDAAMYNNSEALPTSPMAPTTYDPMLKVDDSNTR
notes: human discoidin domain receptor 2, ectodomain; In the functional rows the receptor was full-length DDR2 in HEK293 cells; also called DDR2 ectodomain; source: HEK293-EBNA, episomally transfected, purified (rProtein A)
In the case of B1, the Kd in experiment [3] stood at 20 ± 1.9 nM; in experiment [1], 69.7 nM; in experiment [2], 81.2 nM.

B2: DDR1-Fc (recombinant human discoidin domain receptor 1 ectodomain, Fc-tagged) (Fc fusion, UniProt Q08345 21-417, looked up)
chain: DMKGHFDPAKCRYALGMQDRTIPDSDISASSSWSDSTAARHSRLESSDGDGAWCPAGSVFPKEEEYLQVDLQRLHLVALVGTQGRHAGGLGKEFSRSYRLRYSRDGRRWMGWKDRWGQEVISGNEDPEGVVLKDLGPPMVARLVRFYPRADRVMSVCLRVELYGCLWRDGLLSYTAPVGQTMYLSEAVYLNDSTYDGHTVGGLQYGGLGQLADGVVGLDDFRKSQELRVWPGYDYVGWSNHSFSSGYVEMEFEFDRLRAFQAMQVHCNNMHTLGARLPGGVECRFRRGPAMAWEGEPMRHNLGGNLGDPRARAVSVPLGGRVARFLQCRFLFAGPWLLFSEISFISDVVNNSSPALGGTFPPAPWWPPGPPPTNFSSLELEPRGQQPVAKAEGSPTA
notes: human discoidin domain receptor 1, ectodomain; IgG1 Fc, R&D Systems) stood in which experiment; In the functional rows the receptor was full-length DDR1a in HEK293 cells or endogenous DDR1 on human megakaryocytes; also called DDR1 ectodomain; source: HEK293-EBNA, episomally transfected, purified (rProtein A) (IgG2 Fc); for some experiments bought: R&D Systems (IgG1 Fc)
B2: in experiment [3], the Kd was found to be 15.2 ± 0.9 nM.
